Test results as given in patent publication US20250333503A1.

What was measured:
[1] = molecular target: mouse PVRL2 splice variant 2 on HEK293 cells (mouse); test: FACS dose response on HEK293 OX mouse PVRL2
[2] = molecular target: mouse PVRL2 endogenously expressed on B16-F10 cells (mouse) (UniProt P32507); test: FACS dose response on B16-F10 cells
mouse PVRL2 endogenously expressed on B16-F10 cells (mouse), sequence (P32507 32-530): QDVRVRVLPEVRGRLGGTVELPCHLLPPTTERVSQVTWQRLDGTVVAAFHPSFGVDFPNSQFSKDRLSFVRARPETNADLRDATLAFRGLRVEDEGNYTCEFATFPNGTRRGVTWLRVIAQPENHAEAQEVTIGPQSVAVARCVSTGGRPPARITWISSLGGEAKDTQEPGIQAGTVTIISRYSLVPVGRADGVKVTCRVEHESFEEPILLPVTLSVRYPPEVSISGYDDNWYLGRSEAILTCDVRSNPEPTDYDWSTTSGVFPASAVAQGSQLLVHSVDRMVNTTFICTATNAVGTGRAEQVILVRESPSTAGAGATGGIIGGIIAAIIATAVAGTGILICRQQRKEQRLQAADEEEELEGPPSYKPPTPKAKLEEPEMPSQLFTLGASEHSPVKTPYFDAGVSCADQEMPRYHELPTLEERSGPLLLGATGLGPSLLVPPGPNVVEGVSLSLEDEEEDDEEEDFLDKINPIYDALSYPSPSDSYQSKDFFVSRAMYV

concentration at saturation of binding [1]: 12.5 µg/mL | concentration at saturation of binding [2]: 12.5 µg/mL
Substance: PVRIG mECD-mIg fusion protein (ECD of mouse PVRIG fused to Fc of mouse IgG2a) (Fc fusion)
